Assay results: patent US11814435B2, “Therapeutic antibodies and their uses” (PFIZER INC., priority 2015, dated 2023)
Residue numbers refer to the chain shown, from its start.

T1: hBCMA (human BCMA) (Homo sapiens, UniProt Q02223)
T1 sequence (Q02223 1-184): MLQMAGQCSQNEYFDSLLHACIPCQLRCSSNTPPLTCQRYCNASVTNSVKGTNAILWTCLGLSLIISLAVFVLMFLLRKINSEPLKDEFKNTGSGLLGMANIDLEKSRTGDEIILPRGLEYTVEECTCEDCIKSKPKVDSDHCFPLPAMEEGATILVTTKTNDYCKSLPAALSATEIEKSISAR

B1: C01_Rd4_0.6 nM_C03: anti-BCMA antibody (antibody, V domains shown)
VH: EVQLLESGGGLVQPGGSLRLSCAASGFTFSSYPMSWVRQAPGKGLEWVSAIGGSGGSLPYADSVKGRFTISRDNSKNTLYLQMNSLRAEDTAVYYCARYWPMDSWGQGTLVTVSS
VL: EIVLTQSPGTLSLSPGERATLSCRASCDVSSTYLAWYQQKPGQAPRLLIYDASSRAPGIPDRFSGSGSGTDFTLTISRLEPEDFAVYYCQQYMRSPLTFGQGTKVEIK
B2: COMBO_Rd4_0.6 nM_C30: anti-BCMA antibody (antibody, V domains shown)
VH: B1 VH with L58T, P59Y
VL: B1 VL with C27Q, D28S, S31Y, T32M, S54I, P57T, M93K, R94S, S95W
B3: COMBO_Rd4_0.6 nM_C14: anti-BCMA antibody (antibody, V domains shown)
VH: B1 VH with S104I
VL: B1 VL with C27Q, D28S, S31A, T32L, I49M, S54I, P57T, M93Y, R94G, S95W
B4: COMBO_Rd4_6 nM_C21: anti-BCMA antibody (antibody, V domains shown)
VH: B1 VH
VL: B1 VL with C27Q, D28S, S31A, T32A, I49M, S54I, P57T, R94C, S95W
B5: COMBO_Rd4_0.6 nM_C05: anti-BCMA antibody (antibody, V domains shown)
VH: B1 VH with P33A, S35N, L58T, P59Y, D103S, S104L
VL: B1 VL with C27Q, D28S, I49M, S54I, P57T, R94S, S95W
B6: P5A2_VHVL: anti-BCMA antibody (antibody, V domains shown)
VH: B1 VH with P33A, S35N, G52S, G53D, L58T, P59Y, S104I
VL: B1 VL with C27Q, D28S, T32S, I49M, S54I, P57T, M93G, R94S, S95W
B7: COMBO_Rd4_6 nM_C02: anti-BCMA antibody (antibody, V domains shown)
VH: B1 VH with P33A, S35N, G52S, G53D, S57F, L58V, P59Y
VL: B1 VL with C27Q, D28S, T32S, I49M, S54I, P57T, M93E, R94F, S95W
B8: COMBO_Rd4_0.6 nM_C04: anti-BCMA antibody (antibody, V domains shown)
VH: B1 VH with I51H, G52I, L58T, P59Y
VL: B1 VL with C27Q, D28S, I49M, S54I, P57T, M93Q, R94S, S95W
B9: COMBO_Rd4_6 nM_C11: anti-BCMA antibody (antibody, V domains shown)
VH: B1 VH with P59G
VL: B1 VL with C27Q, D28S, S31P, T32L, I49M, S54I, P57T, M93K, R94A, S95W
B10: COMBO_Rd4_0.6 nM_C09: anti-BCMA antibody (antibody, V domains shown)
VH: B1 VH with S104I
VL: B1 VL with C27Q, D28S, I49M, S54I, P57T, M93Q, R94E, S95W
B11: COMBO_Rd4_0.6 nM_C19: anti-BCMA antibody (antibody, V domains shown)
VH: B1 VH
VL: B1 VL with C27Q, D28S, S31A, T32V, I49M, S54I, P57T, M93R, R94A, S95W
B12: C01_Rd4_6 nM_C04: anti-BCMA antibody (antibody, V domains shown)
VH: B1 VH
VL: B1 VL with R24C, A25S, C27Q, D28S, M93S, R94A, S95F
B13: COMBO_Rd4_0.6 nM_C20: anti-BCMA antibody (antibody, V domains shown)
VH: B1 VH
VL: B1 VL with C27Q, D28S, S31Y, T32L, I49M, S54I, P57T, R94E, S95W
B14: COMBO_Rd4_0.6 nM_C21: anti-BCMA antibody (antibody, V domains shown)
VH: B1 VH
VL: B1 VL with C27Q, D28S, T32S, I49M, S54I, P57T, M93Q, R94S, S95W
B15: COMBO_Rd4_0.6 nM_C23: anti-BCMA antibody (antibody, V domains shown)
VH: B1 VH with I51L, G52F, L58T, P59Y
VL: EIVLTQSPGTLSLSPGERATLSCRPRQSVSSSYLAWYQQKPGQAPRLLMYDASIRATGIPDRFSGSGSGTDFTLTISRLEPEDFAVYYCQQYQDWPLTFGQGTKVEIK
B16: COMBO_Rd4_6 nM_C07: anti-BCMA antibody (antibody, V domains shown)
VH: B1 VH with D103A, S104D
VL: B15 VL with P25A, R26S, S28P, V29I, D94G
B17: C01_Rd4_0.6 nM_C06: anti-BCMA antibody (antibody, V domains shown)
VH: B1 VH
VL: B1 VL with C27E, D28A, S30P, M93S, R94A, S95F
B18: COMBO_Rd4_6 nM_C08: anti-BCMA antibody (antibody, V domains shown)
VH: B1 VH with G56T, S57W, L58T, P59Y
VL: B15 VL with P25A, R26S, D94K
B19: COMBO_Rd4_6 nM_C10: anti-BCMA antibody (antibody, V domains shown)
VH: B1 VH with L58I, P59H
VL: B15 VL with P25A, R26S, L34W, A35G, D94C
B20: COMBO_Rd4_0.6 nM_C02: anti-BCMA antibody (antibody, V domains shown)
VH: B1 VH
VL: B1 VL with C27I, D28A, I49M, S54I, P57T, R94V, S95W
B21: COMBO_Rd4_6 nM_C25: anti-BCMA antibody (antibody, V domains shown)
VH: B1 VH with L58T, P59Y, S104P
VL: B15 VL with P25A, R26S, S32P, D94S
B22: COMBO_Rd4_6 nM_C09: anti-BCMA antibody (antibody, V domains shown)
VH: B1 VH with G52F, G53A, L58T, P59Y
VL: B15 VL with P25A, R26S, S31A, S32Q, D94A
B23: COMBO_Rd4_6 nM_C12: anti-BCMA antibody (antibody, V domains shown)
VH: EVQLLESGGGLVQPGGSLRLSCAASGFTFSSYPMSWVRQAPGKGLEWVSAALGSGGSTYYADSVKGRFTISRDNSKNTLYLQMNSLRAEDTAVYYCARYWPMDSWGQGTLVTVS
VL: B15 VL with P25A, R26S, S31A, Q93M, D94S

molecular target: T1, hBCMA (human BCMA); assay: Kinetics and affinity of hBCMA/human IgG interactions by SPR (Bio-Rad Proteon XPR36); assay type: binding; conditions: human BCMA, 37° C.
Summary of the method: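 Kinetics and affinity came from double-referenced sensorgrams fit to a 1:1 Langmuir model with mass transport. The fits used a five-step kinetic titration of BCMA (0.08-50 nM, 2 min each, then 2 h dissociation) over immobilized IgGs, run at 37° C. or 25° C. in HBS-T+ pH 7.4 containing 1 mg/mL BSA.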

| Molecule | ka Human [M⁻¹ s⁻¹] | kd Human [s⁻¹] |
| --- | --- | --- |
| B1 | 1.55e+07 | 0.015 |
| B2 | 4.35e+06 | 0.000282 |
| B3 | 8.66e+06 | 0.000328 |
| B4 | 1.17e+07 | 7.34e-05 |
| B5 | 4.32e+06 | 0.000497 |
| B6 | 6.96e+06 | 0.0387 |
| B7 | 1.05e+06 | 0.000443 |
| B8 | 1.07e+07 | 0.000158 |
| B9 | 6.74e+06 | 0.000124 |
| B10 | 1.04e+07 | 0.000319 |
| B11 | 7.86e+06 | 0.000155 |
| B12 | 2.33e+07 | 0.0497 |
| B13 | 7.65e+06 | 0.000146 |
| B14 | 1.34e+07 | 0.000115 |
| B15 | 7.39e+06 | 0.00021 |
| B16 | 1.05e+07 | 0.000371 |
| B17 | 1.82e+07 | 0.0154 |
| B18 | 8.99e+06 | 0.000169 |
| B19 | 5.47e+06 | 9.72e-05 |
| B20 | 8.57e+06 | 0.000185 |
| B21 | 7.98e+06 | 0.000113 |
| B22 | 8.85e+06 | 0.000143 |
| B23 | 1.38e+07 | 0.00027 |

system: Cyno BCMA; assay: Kinetics and affinity of cyno BCMA/human IgG interactions by SPR (Bio-Rad Proteon XPR36); assay type: binding, cynomolgus; conditions: 37° C.

| Molecule | ka Cyno [M⁻¹ s⁻¹] | kd Cyno [s⁻¹] |
| --- | --- | --- |
| B1 | 4.72e+06 | 0.0119 |
| B2 | 1.68e+06 | 0.000808 |
| B3 | 3.48e+06 | 0.000645 |
| B4 | 3.17e+06 | 0.000248 |
| B5 | 1.94e+06 | 0.00172 |
| B6 | 1.61e+06 | 0.0164 |
| B7 | 795000 | 0.00136 |
| B8 | 3.52e+06 | 0.000137 |
| B9 | 2.64e+06 | 0.000412 |
| B10 | 3.77e+06 | 0.000346 |
| B11 | 2.92e+06 | 0.000979 |
| B12 | 6.34e+06 | 0.0327 |
| B13 | 3.09e+06 | 0.000284 |
| B14 | 3.63e+06 | 0.000304 |
| B15 | 2.81e+06 | 0.000531 |
| B16 | 3.94e+06 | 0.000934 |
| B17 | 6.22e+06 | 0.0121 |
| B18 | 3.06e+06 | 0.000428 |
| B19 | 1.52e+06 | 0.00016 |
| B20 | 3.01e+06 | 0.000494 |
| B21 | 2.85e+06 | 0.000226 |
| B22 | 2.37e+06 | 0.000318 |
| B23 | 3.29e+06 | 0.000486 |
